{"source": "patent US20220016183A1", "about": "“EXOSOME AND VARIOUS USES THEREOF” (PROSTEMICS CO., LTD., priority 2018, published 2022)", "key": {"keratinocytes (HaCaT)": {"test_system": "keratinocytes (HaCaT)", "assay": "Keratinocyte (HaCaT) proliferation", "assay_type": "cell-based, human", "conditions": "500 ng/ml, 48 hours, DMEM 1% FBS", "method": "(§1) After 48 hours, a change in cell viability was measured, and results thereof are shown in Tables 8 and 9 below and FIGS. 9 and 10."}, "human fibroblasts (HDF)": {"test_system": "human fibroblasts (HDF)", "assay": "Skin fibroblast (HDF) proliferation", "assay_type": "cell-based", "conditions": "500 ng/ml, 48 hours, DMEM 1% FBS", "method": "as §1"}, "[1]": {"test_system": "adipose-derived stem cells (ASC)", "assay": "Adipose-derived stem cell (ASC) proliferation, CCK-8", "assay_type": "cell-based", "conditions": "positive control of Table 10 (FBS, 10 wt. % in medium), 24 hours", "method": "Adipocytes derived stem cells (ADCs) were cultured in DMEM medium (Invitrogen) containing 10% fetal calf serum and 1% penicillin/streptomycin at 37° C. and 5% CO2 conditions, and the medium was changed every 3 days. After culturing for 24 hours, the cells were treated under the conditions shown in Table 10 below, and further cultured for 24 hours. After removing the treated material from each cell and dispensing the CCK-8 solution thereto, the cells were incubated at 37° C. in a CO2 incubator for 2 hours, and absorbance was measured at 450 nm."}}, "data": [{"molecule": "E1: EGF, positive control at 500 ng/ml (protein, UniProt P01133 23-1207, looked up, Pro-epidermal growth factor, EGF, positive control at 500 ng/ml) Pro-epidermal growth factor: PQHWSCPEGTLAGNGNSTCVGPAPFLIFSHGNSIFRIDTEGTNYEQLVVDAGVSVIMDFHYNEKRIYWVDLERQLLQRVFLNGSRQERVCNIEKNVSGMAINWINEEVIWSNQQEGIITVTDMKGNNSHILLSALKYPANVAVDPVERFIFWSSEVAGSLYRADLDGVGVKALLETSEKITAVSLDVLDKRLFWIQYNREGSNSLICSCDYDGGSVHISKHPTQHNLFAMSLFGDRIFYSTWKMKTIWIANKHTGKDMVRINLHSSFVPLGELKVVHPLAQPKAEDDTWEPEQKLCKLRKGNCSSTVCGQDLQSHLCMCAEGYALSRDRKYCEDVNECAFWNHGCTLGCKNTPGSYYCTCPVGFVLLPDGKRCHQLVSCPRNVSECSHDCVLTSEGPLCFCPEGSVLERDGKTCSGCSSPDNGGCSQLCVPLSPVSWECDCFPGYDLQLDEKSCAASGPQPFLLFANSQDIRHMHFDGTDYGTLLSQQMGMVYALDHDPVENKIYFAHTALKWIERANMDGSQRERLIEEGVDVPEGLAVDWIGRRFYWTDRGKSLIGRSDLNGKRSKIITKENISQPRGIAVHPMAKRLFWTDTGINPRIESSSLQGLGRLVIASSDLIWPSGITIDFLTDKLYWCDAKQSVIEMANLDGSKRRRLTQNDVGHPFAVAVFEDYVWFSDWAMPSVMRVNKRTGKDRVRLQGSMLKPSSLVVVHPLAKPGADPCLYQNGGCEHICKKRLGTAWCSCREGFMKASDGKTCLALDGHQLLAGGEVDLKNQVTPLDILSKTRVSEDNITESQHMLVAEIMVSDQDDCAPVGCSMYARCISEGEDATCQCLKGFAGDGKLCSDIDECEMGVPVCPPASSKCINTEGGYVCRCSEGYQGDGIHCLDIDECQLGEHSCGENASCTNTEGGYTCMCAGRLSEPGLICPDSTPPPHLREDDHHYSVRNSDSECPLSHDGYCLHDGVCMYIEALDKYACNCVVGYIGERCQYRDLKWWELRHAGHGQQQKVIVVAVCVVVLVMLLLLSLWGAHYYRTQKLLSKNPKNPYEESSRDVRSRRPADTEDGMSSCPQPWFVVIKEHQDLKNGGQPVAGEDGQAADGSMQPTSWRQEPQLCGMGTEQGCWIPVSSDKGSCPQVMERSFHMPSYGTQTLEGGVEKPHSLLSANPLWQQRALDPPHQMELTQ", "values": [{"measurement": "HaCaT proliferation rate (%)", "setting": "keratinocytes (HaCaT)", "value": 160.38, "unit": "%"}, {"measurement": "HDF proliferation rate (%)", "setting": "human fibroblasts (HDF)", "value": 143.04, "unit": "%"}, {"measurement": "ASC proliferation rate (%)", "setting": "[1]", "value": 186.10, "unit": "%"}]}]}
